Test: yeast display, Sf9 membrane polyspecificity reagent, FACS + sequencing; frameworks hold sequencing errors
In short: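 A nanobody's polyreactivity label depends on the gate it was sorted from. Yeast display cells were stained with 10% biotinylated, detergent-solubilized Sf9 membrane reagent for 1 hour at 4 °C, enriched on streptavidin microbeads and sorted by FACS. The low and high (top ~1%) gates were set on anti-HA fluorescence for expression and streptavidin fluorescence for reagent binding.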

| Sequence | polyreactivity (PSR sort gate) |
| --- | --- |
| QVQLVESGGGIVQAGGSLRLSCAASGRTFLGYAMGWYRQAPGKERELVAAISYSGSSTYYADSVKGRFTISRDNAKNTVYLQMNSLKPEDTAVYYCAAQFYFLFDYWGQGTQVTVSS | low polyreactivity |
| QVQLVESGGGIVQAGGSLRLSCAASGRTFLQNAMGWYRQAPGKERELVATINYSGSSTYYADSVKGRFTISRDNAKKTVYLQMNSLKPEDTAVYYCNRDVPYRLVYYANYYRGQGTQVTVSS | low polyreactivity |
| QVQLVESGGGIVQAGGSLRLSCAASGRTFRGNAMGWSRQAPVKERELVATIRRPGGSTYYADSVKGRFTISRDNAKNTVYLQMNSLKPEDTAVYYCNALNYYLYDKTFDYWGQGTKVTVSS | high polyreactivity |
| QVQLVESGGGIVQAGGSLRLSCAASGRTFRGNAMGWYRQAPGKERELVAAISWSGGRTYYADSVKGRFTISRDNAKNTVYLQMNSLKPEDTAVYYCNRLTRRWYSLRSFDYWGQGTQVTVSS | high polyreactivity |
| QVQLVESGGGIVQAGGSLRLSCAASGRTFSPYAKGWYRQAPGKERELVAAITLSGSSTYYADSVKGRFTISRDNAKNTVYLQMNRLKPEDTAVYYCAADYLYSWYRYVTYDYWGQGTQVTVSS | high polyreactivity |
| QVQLVESGGGIVQAGGSLRLSCAASGRTFYGNVMGWYRQAPGKERELVATISFSAGSTYYADSVKGRFTISRDNAKNTVYLQMNSLKPEDTAVYYCNADHTDYASGGGNYWGQGTQVTVSS | low polyreactivity |
| QVQLVESGGGIVQAGGSLRLSCAASGSIFDSNAMGWYRQAPGKERELVAAITGSGTSTYYADSVKGRFTISRDNAKNTVYLQMNSLKPEDTAVYYCAAAPEYLTDHDYWGQGTQVTVSS | low polyreactivity |
| QVQLVESGGGIVQAGGSLRLSCAASGSIFKTNPMGWYRQAPGKERELVADISPSSGRTYYADSVKGRFTISRDNSKNTVYLQMNCLKPDDTAVYYCNRLSRRGYDYWGQGTQVTVSS | high polyreactivity |
| QVQLVESGGGIVQAGGSLRLSCAASGSIFQGNAMGWYRQAAGKERELVAAITYSGGSTYYADSVKGRFTISRDNAKNTVYLQMNSLKPEDTAVSYCNTTLRDSRQYVDRAPYTRYDYWGQGTQVTVSS | low polyreactivity |
| QVQLVESGGGIVQAGGSLRLSCAASGSIFSENTMGWYRQAPGKKRELVADITSGGSTNYADSVKGRFTISRDNAKNTVYLQMNSLKPEDTAVYYCNADWEAYKYNYWGQGTQVTVSS | low polyreactivity |
| QVQLVESGGGIVQAGGSLRLSCAASGSIFSRKVMGWYRQAPGKDRELVAAISWSGSSTSYADSVKGRFTISRDTAKNTVYLQMNSLKPEDTAVYYCNRYFGQGYWGQGTQVTVSS | high polyreactivity |
| QVQLVESGGGIVQAGGSLRLSCAASGSIFVHNDMGWYRQAPGKERELVARINTGGGTNYADSVKGRFTISRDNAKNTVYLEMNSLKPEDTAVYYCATDGDRYDHYFTDPEFDYWGQGTQVTVSS | low polyreactivity |
| QVQLVESGGGIVQAGGSLRLSCAASGSIVRGYAMGWYRQAPGKERELVAAITFSGGSTYADSVKGRFTISRDNAKNTVYLQMNSLKPEDTAVYYCAAKRTGHNWFTVYPYYSWGQGTQVTVSS | low polyreactivity |
| QVQLVESGGGIVQAGGSLRLSCAASGSIYRYNTMGWYRQEPRKERELVATITRRGGSTYYADSVQGRFTISRDNAKNTVYLQMNSLKPEDTAVYYCNADYFGGPYNYWGQGTQVTVSS | low polyreactivity |
| QVQLVESGGGIVQAGGSLRLSCAASGSTFAYYAIGWYRQAPGKEREFVATITWTGGSTNYADSETGRFTISRDNAKNSVYLQMNSLKPEATAVYYSAASFVISYDYWGQGTQVTVSS | high polyreactivity |
| QVQLVESGGGIVQAGGSLRLSCAASGSTFDVNAMGWYRQAPGKERELVAAISWNSGSTYYADSVKGRFTISRDNAKNTVYLQMNSLKPEDTAVYYCAATYGTGRRSKYGYWGQGTQVTVSS | high polyreactivity |
| QVQLVESGGGIVQAGGSLRLSCAASGSTFNYYAMGWYRQAPGKERELVAAISISGGSTYYADSVKGRFTISRDNAKNTVYLQMNSLKPEDTAVYYCAAVPYGFVGYDDYWGQGTQVTVSS | low polyreactivity |
| QVQLVESGGGIVQAGGSLRLSCAASGSTFRLYAMGWYRQAPGKERELVAAITWSVGSTYYADSVKGRFTISRDNAKNTVYLQMNSLKPEDTAVYYCAADRIGYYLRVSYRGKYDHWGQGTQVTVSS | low polyreactivity |
| QVQLVESGGGIVQAGGSLRLSCAASGSTFTANAMGWYRQAPGKERELVAAISRSGGSTYYADSVKGRFTISRDNAKNTVYLQMNSLKPEDTAVYYCAAESPLFSPPDGEDYWGQGTQVTVSS | low polyreactivity |
| QVQLVESGGGIVQAGGSLRLSCAASGSTFYDYAMGWYRQAPGKETELVAAITRGGSTYYADSVKGRFTISRDNAKNTVYLQMNILKPEDTAVFYCAKYLTCAAYLVPEYDYWGQGTQVSVSS | low polyreactivity |
| QVQLVESGGGIVQAGGSLRLSCAASGSTFYRYAMGWYRQAPGKERELVATITNSGGSTYYADSVKGRFTISRDNAKNTVYLQMNSLKPEDTAVYYCARVRSRNTGYYYWGQGTQVTVSS | high polyreactivity |
| QVQLVESGGGIVQAGGSLRLSCAASGSTLWGNVMRSYRQAPGKERELVAVISKTGGSTYYADSVKGRFTISRDNAKNTVYLQMNSLKPEDSAVYYCATRWPYRSDWGLGTQVTVSS | high polyreactivity |

| Sequence | polyreactivity (PSR sort gate) |
| --- | --- |
| QVQLVESGGGIVQAGGSLRLSCAASGSTVVIYTMGWSRQAAGKEREFVASLSVSGGSTYYADSVKGRFTISRDYAKKTVYLQMNSLKPEDTAVYYCAAGYPYYYWTPYYYWGQGTQVTVSS | high polyreactivity |
| QVQLVESGGGIVQAGGSLRLSCAASGTLGSYRQAPGNEWELVAAISQSGGSTYYADSVKGRFTISRDNAKNTVYLQMNSLKPEDTAVYYCAVDPRYGHPRRDYWGQGTQVTVSS | low polyreactivity |
| QVQLVESGGGIVQAGGSLRLSCAASGYTFGRYAMGWYRQAPGKERELVAGIRWRGGSTYYADSVKGRFTISRDNAKNTVYLQMNSLKPEDTAVYYCAAYGYPVYYNYHYDYWGQVTQVTVSS | high polyreactivity |
| QVQLVESGGGIVQAGGSLRLSCAASVFTFSDYTMGWYRQAPGKERELVAAINRGGNTYYADSVKGRFTISRDNAKNTVYLQMNSLKPEDTALYYCAAASYYAPYYWGQCTQVTVSS | high polyreactivity |
| QVQLVESGGGIVQAGGSLRLSCAATGFIFDQNAMAWYIQAPGKERELVAAISKRGGSTYYADSVKGRFTISRDNAKNTVYLQMNSLKREDTAVYYGATRSWGPYYYGYNHWGQGTQVTVSS | high polyreactivity |
| QVQLVESGGGIVQAGGSLRLSCAATGSIFGNYAMGWYRQAPGKERELVAAITSSGGTYYADSVKGRFTISRDNAKNTVYLQMNSLKPEDTAVYYCAARYYSYRHQSVKYGYWGQGTQVTVSS | high polyreactivity |
| QVQLVESGGGIVQAGGSLRLSCAGSGIIFWYYAMGWYRQAPGKERELVAAISQSGGRTYYADSVKGRFTISRDNAKNTVYLQMNSLKPEDTAVYYCAAGLVYRWSTTPRRLYYYWGQGTQVTVSS | high polyreactivity |
| QVQLVESGGGIVQAGGSLRLSCTASGFTFVYYAMGWYRQAPGKERELVASISRSGGSTYYADSVKGRFTISRDNAKNTVYLQMNSLKPEDTGVYYCNARYGRTALLDYWGQGTQVTVSS | high polyreactivity |
| QVQLVESGGGIVQAGGSLRLSSAASGRIFPYYAMGWYRQSPGKERELVAAINWRGTRTYADSVKWRFTISRDNAKYTVYFQMTSLNPEDTAVYYCAARTLYFSKYDYWGLGTQVTVSS | high polyreactivity |
| QVQLVESGGGIVQAGGSLRLSSAASGRIFRYYAMGWYRQAPGKERQLVAAISGSGGITYYADSVKGRFTISRDNAKNTVYLQLNRLKPEDTAVYYCAARYGIRPSVSGGYWGQGTQVTVSS | high polyreactivity |
| QVQLVESGGGIVQAGGSLRLTCAASGITFYKYDMGWYRQAPGKDRELVAAISFRGGNTNYADSVKGRFTISRDNAKNTVYLQMNILKPEDTAVYYCAAYSYTWFYEYGYWGQGTQVTVSS | high polyreactivity |
| QVQLVESGGGIVQAGGSLRLTCAASGRIFLANAMGWYRQAPGKERELVAAISLSGGRTYYADSLKGRFTISRDNAKNSVYFQRNSLKPEDTAVYYCAAEFYPIRYYGGYDYWGQGTQVTVSS | low polyreactivity |
| QVQLVESGGGIVQAGGSLRVSCAASGTMGWYRQAPGKERELVAAISQSGGSTYYADSVKGRFTISRDNAKNTVYLQMNSLKPEDTAVYYCAVDPGYGHPRRDYWGQGTQVTVSS | low polyreactivity |
| QVQLVESGGGIVQAGGSLSLSCAASGNIFTAYAMGWYRQAPGKERELVATITSSGDSTYYADSVKGRFTISRDNAKNTVYLQMNRLKPEDTSVYYFATADPSASNEVYEYDYWGQGTQVTVSS | low polyreactivity |
| QVQLVESGGGIVQAGGTLRLSCAASGIIFGSYAMGWYRQEPGKERELVAAINSSGGSTHYADSVKGRFTISRDNSKNTVYLQMNSLKPEDTAVYYCAADGYWRDYSGYWDYYYIYDYCGQGTQVTVSS | low polyreactivity |
| QVQLVESGGGIVQAGGTLRLSCAPYGSNYYAMACYRQAPGKDRDFVAAITTRGGGTYYADSVKGRFTISRDNAQNTVYLQMFSLKPVDTAVYVCAAEDYRPRTYVYRYRYYYWGQGTQVTVSS | high polyreactivity |
| QVQLVESGGGIVQAGRSLRLSCAASGRTFHGYAMGWYRQAPGKERELVAAITGTGGRTYYAESVKGRFTISRDKAKNTVYLQMNSLKPEDTAVYYCAARPWIKSGYWGQGTQVTVSS | high polyreactivity |
| QVQLVESGGGIVQAGRSLRLSCPASGLIFGPYTMGWYRQAPGKERELVAAISRSGGITYYADSVKGRFTISRDNATNTVYLQMNSLKPEDTAVYYCAARLVRESEPLGYWGQGTQVTLSS | high polyreactivity |
| QVQLVESGGGIVQAGVSLRLISAASGRIFRINAMGWYRQAPGKERDLVADITSGGSTNYADSVKGRFTISRDNAKITVYLQMNSLKPEDTAVYFCAPGYVTYRTRLDYWGQGTQVTVSS | low polyreactivity |
| QVQLVESGGGIVQAGVSLRLSCAASGISYSPNVMGWYRQAPGKERELVASISSGGSTYYADSVNGRFTISRDNATNSVYLQMNSLKPEDTAVYYCAAEVDGYWTYYYWGQGTQVTVSS | low polyreactivity |
| QVQLVESGGGIVQAVGSLRLSCAASGSTFRLYAMGWYRQAPGKERELVAAISSNGVRTYYADSVKGRFTISRDNAKNTVYLQINSLKPEDTAVYYCAARVYPAYPRGYDYWGQGTQVNVSS | high polyreactivity |
